The text below walks through data of patent US10160948B2, “Pluripotent embryonic-like stem cells, compositions, methods and uses thereof” (ABT HOLDING COMPANY, priority 1999, dated 2018).

One assay concerns pluripotent stem cells. The experiment in a line: Proliferation and phenotypic responses to bioactive factors: pluripotent cells. It is filed as cell-based. The source says:
(§1) Having access to mixed populations of progenitor stem cells, progenitor stem cell clones, and pluripotent stem cell clones permits one to address the influence of various bioactive factors (e.g. recombinant growth factors, purified compounds, and novel inductive factors) on the growth characteristics and phenotypic expression of these stem cells.
Cryopreserved cells are thawed and plated in MSC-1 at 5, 10, or 20×10^3 cells per well of gelatinized 24-well plates following the standard protocol. Twenty-four hours after initial plating the medium is changed to testing medium (TM) 1 to 6 (TM-1, TM-2, TM-3, TM-4, TM-5, or TM-6). TM-1 to TM-4 consist of Ultraculture (cat. no. 12-725B, lot. nos. OMO455 [TM-1], 1M1724 [TM-2], 2M0420 [TM-3], or 2M0274 [TM-4], Bio-Whittaker, Walkersville, Md.), medium (EMEM or Opti-MEM 0.01 mM β-mercaptoethanol), and 1% (v/v) antibiotic-antimycotic, pH 7.4. TM-5 consists of 98% (v/v) medium, 1% (v/v) HS, and 1% (v/v) antibiotic-antimycotic, pH 7.4. TM-6 consists of 98.5% (v/v) medium, 0.5% (v/v) HS, and 1% (v/v) antibiotic-antimycotic, pH 7.4. […] Four testing media (TM#'s 1-4), each containing various concentrations of Ultraculture, were used as. […] The four Ultraculture-based testing media were: TM-1=15% (v/v) Ultraculture (Lot no. OMO455): 84% (v/v) medium: 1% (v/v) antibiotics; TM-2=15% (v/v) Ultraculture (Lot no. 1M1724): 84% (v/v) medium: 1% (v/v) antibiotics; TM-3=50% (v/v) Ultraculture (Lot no. 2M0420): 49% (v/v) medium: 1% (v/v) antibiotics; and TM-4=75% (v/v) Ultraculture (Lot no. 2M0274): 24% (v/v) medium: 1% (v/v) antibiotics. Pre-incubation for 24 hr in testing medium alone is used to wash out any potential synergistic components in the MSC-1 medium. Twenty-four hours later the testing medium is changed to one of the following. For controls, TM-1 to TM-6 alone is used. To identify clones of progenitor cells, the medium is replaced with TM-1 to TM-6 containing 2 μg/ml insulin (Sigma), an agent that accelerates the appearance of phenotypic expression markers in progenitor cells (TABLE 12). […]

In another assay the test system is progenitor stem cells. The experiment in a line: Proliferation and phenotypic responses to bioactive factors: progenitor cells. It is filed as cell-based.
Description: as §1
Cryopreserved cells are thawed and plated in MSC-1 at 5, 10, or 20×10^3 cells per well of gelatinized 24-well plates following the standard protocol. Twenty-four hours after initial plating the medium is changed to testing medium (TM) 1 to 6 (TM-1, TM-2, TM-3, TM-4, TM-5, or TM-6). TM-1 to TM-4 consist of Ultraculture (cat. no. 12-725B, lot. nos. OMO455 [TM-1], 1M1724 [TM-2], 2M0420 [TM-3], or 2M0274 [TM-4], Bio-Whittaker, Walkersville, Md.), medium (EMEM or Opti-MEM 0.01 mM β-mercaptoethanol), and 1% (v/v) antibiotic-antimycotic, pH 7.4. TM-5 consists of 98% (v/v) medium, 1% (v/v) HS, and 1% (v/v) antibiotic-antimycotic, pH 7.4. TM-6 consists of 98.5% (v/v) medium, 0.5% (v/v) HS, and 1% (v/v) antibiotic-antimycotic, pH 7.4. […] Four testing media (TM#'s 1-4), each containing various concentrations of Ultraculture, were used as. […]

The mark [1] stands for this setting: presence and approximate distribution of differentiated phenotypes within the culture wells.

B1: PDECGF: Platelet-derived endothelial cell growth factor (protein, UniProt P19971 11-482, looked up)
Thymidine phosphorylase: APPAPGDFSGEGSQGLPDPSPEPKQLPELIRMKRDGGRLSEADIRGFVAAVVNGSAQGAQIGAMLMAIRLRGMDLEETSVLTQALAQSGQQLEWPEAWRQQLVDKHSTGGVGDKVSLVLAPALAACGCKVPMISGRGLGHTGGTLDKLESIPGFNVIQSPEQMQVLLDQAGCCIVGQSEQLVPADGILYAARDVTATVDSLPLITASILSKKLVEGLSALVVDVKFGGAAVFPNQEQARELAKTLVGVGASLGLRVAAALTAMDKPLGRCVGHALEVEEALLCMDGAGPPDLRDLVTTLGGALLWLSGHAGTQAQGAARVAAALDDGSALGRFERMLAAQGVDPGLARALCSGSPAERRQLLPRAREQEELLAPADGTVELVRALPLALVLHELGAGRSRAGEPLRLGVGAELLVDVGQRLRRGTPWLRVHRDGPALSGPQSRALQEALVLSDRAPFAAPSPFAELVLPPQQ
Consider B1, for which the “Proliferation, Pluripotent: number of times the agent increased the DNA content per well versus its respective control” value in the assay on pluripotent stem cells is 1 times. In addition, the “activity on pluripotent and progenitor stem cells, in words” value in the assay on pluripotent stem cells (pluripotent and progenitor cells) was “no measurable effect on either progenitor or pluripotent stem cells”. In addition, the “Phenotypic Expression, Pluripotent” value in the assay on pluripotent stem cells (setting [1]) turned out to be 0. Besides, the “Proliferation, Progenitor: number of times the agent increased the DNA content per well versus its respective control” value in the assay on progenitor stem cells was 1 times. Besides, the “Phenotypic Expression, Progenitor” value in the assay with progenitor stem cells (setting [1]) was “All+”.
